# Reference: article PMC5902495, “Synthesis of Symmetrical Tetrameric Conjugates of the Radiolanthanide Chelator DOTPI for Application in Endoradiotherapy by Means of Click Chemistry” (Frontiers in Chemistry, 2018)
# Columns and labels:
# [1] = system: subcutaneous LNCaP (PSMA-expressing human prostate carcinoma) xenografts; assay: Biodistribution in SCID mice bearing LNCaP xenografts; assay type: in vivo; settings: compared to ^177Lu-DOTPI(DBCO-KuE)4
# Experimental: The experiments were carried out in accordance with the German Animal Welfare Act (Tierschutzgesetz), and were previously approved by the responsible authority (Regierung von Oberbayern). The animal model, male CB-17 SCID mice bearing subcutaneous LNCaP tumor xenografts, were generated as described before (Weineisen et al., [2014]). Approximately 1–4 MBq (varying molar activities; absolute molar amounts of active compound ranging from 0.11 to 0.15 nmol) of the ^177Lu-labeled PSMA inhibitors were injected into the tail vein of the animals, which were sacrificed 1 and 24 h post injection (n = 3 per tracer per time point). Selected organs were removed, weighted and the activities contained were measured in a γ-counter.
# [2] = Octanol-water distribution coefficients; assay type: physicochemical; settings: n-octanol / PBS pH 7.4, ^177Lu-labeled tracer, n = 6
# Experimental: Approximately 1 MBq of the ^177Lu-labeled tracer was added to a mixture of 0.5 mL phosphate buffered saline (PBS, pH 7.4) and 0.5 mL n-octanol in an Eppendorf tube (n = 6). After vigorous mixing of the suspension for 3 min, the vial was centrifuged at 11.500 g for 3 min for phase separation. 200 μL aliquots of each phase were withdrawn and measured in a gamma counter.
structure (smiles),measurement,setting,value
"O=C(O)CC[C@H](NC(=O)N[C@@H](CCCCNC(=O)CCCCCNC(=O)CCc1cn(CCCNC(=O)CCP(=O)(O)CN2CCN(CP(=O)(O)CCC(=O)NCCCn3cc(CCC(=O)NCCCCCC(=O)NCCCC[C@H](NC(=O)N[C@@H](CCC(=O)O)C(=O)O)C(=O)O)nn3)CCN(CP(=O)(O)CCC(=O)NCCCn3cc(CCC(=O)NCCCCCC(=O)NCCCC[C@H](NC(=O)N[C@@H](CCC(=O)O)C(=O)O)C(=O)O)nn3)CCN(CP(=O)(O)CCC(=O)NCCCn3cc(CCC(=O)NCCCCCC(=O)NCCCC[C@H](NC(=O)N[C@@H](CCC(=O)O)C(=O)O)C(=O)O)nn3)CC2)nn1)C(=O)O)C(=O)O (single isomer, unassigned) [^177Lu-DOTPI(Trz-KuE)4, metal not drawn]",kidney uptake,[1]; 1 and 24 h post injection,remarkably low
same,tumor-to-organ ratios,[1]; after 24 h,substantially better
same,washout from non-target tissues,[1],much faster
same,logD,[2],-5 ± 0.1
